# B1: CPEB3 Ribozyme (parent)
# chain: UAACAGGGGGCCACAGCAGAAGCGUUCACGUCGCAGCCCCUGUCAGAUUCUGGUGAAUCUGCGAAUUCUGCUGUAUAUCUC
# Variants of: B1
# Test: self-cleavage, relative activity (ratio to wild type); higher = more cleavage; in vitro, sequencing
# Outline: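 Libraries of CPEB3 self-cleaving ribozyme mutants came from rounds of error-prone PCR and carried barcodes, which DNA sequencing matched to variants. In vitro transcription used T7 RNA polymerase at 37°C for 5 hours, with a further 15 min in DNase I before EDTA stopped the reaction; the ribozymes cleaved during both steps. The RNA was reverse transcribed with template switching and sequenced on Illumina. Relative activity is the cleaved/total read fraction of a variant divided by that of the unmutated ribozyme, averaged over three batches with at least 5 reads.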
row,Variant,self-cleavage
1,UAACAGGGGGCCUCAGCAGAAGCGUUCACGUCGCAGCCCCUGUCUGAUUCUGGUGAAUCUGCGAAUUCUGCUGUAUAUCUC [A13U A45U],0.69
2,UAACAGGGGGCCUCAGCAGAAGCGUUCACGUAGCAGCCCCUGUCAGAUUCUGGUGAAUCUGCGAAUUCUGCUGUAUAUCUC [A13U C32A],0.2
3,UAACAGGGGGCCUCAGCAGAAGCGUUCACGUUGCAGCCCCUGUCAGAUUCUGGUGAAUCUGCGAAUUCUGCUGUAUAUCUC [A13U C32U],0.25
4,UAACAGGGGGCCUCAGCAGAAGCGUUCACGUGGCAGCCCCUGUCAGAUUCUGGUGAAUCUGCGAAUUCUGCUGUAUAUCUC [A13U C32G],0.45
5,UAACAGGGGGCCUCAGCAGAAGCGUUCACGUCGCAGUCCCUGUCAGAUUCUGGUGAAUCUGCGAAUUCUGCUGUAUAUCUC [A13U C37U],1.09
6,UAACAGGGGGCCUCAGCAGAAGCGUUCACGUCGCAGCCCCUGUCAGCUUCUGGUGAAUCUGCGAAUUCUGCUGUAUAUCUC [A13U A47C],0.76
7,UAACAGGGGGCCUCAGCAGAAGCGUUCACGUCGCAGCCCCUGUCAGGUUCUGGUGAAUCUGCGAAUUCUGCUGUAUAUCUC [A13U A47G],1.01
8,UAACAGGGGGCCUCAGCAGAAGCGUUCACGUCGCAGCCCCUGUCAGUUUCUGGUGAAUCUGCGAAUUCUGCUGUAUAUCUC [A13U A47U],0.92
9,UAACAGGGGGCCUCAGCAGAAGCGUUCACGUCGCAGCCCCUGUCAGAUUCUGGUGACUCUGCGAAUUCUGCUGUAUAUCUC [A13U A57C],0.7
10,UAACAGGGGGCCUCAGCAGAAGCGUUCACGUCGCAGCCCCUGUCAGAUUCUGGUGAGUCUGCGAAUUCUGCUGUAUAUCUC [A13U A57G],1.07
11,UAACAGGGGGCCUCAGCAGAAGCGUUCACGUCGCAGCCCCUGUCAGAUUCUGGUGAUUCUGCGAAUUCUGCUGUAUAUCUC [A13U A57U],1.04
12,UAACAGGGGGCCUCAGCAGAAGCGUUCACGUCGCAGCCCCUGUCAGAUUCUGGUGAAUCUGCGCAUUCUGCUGUAUAUCUC [A13U A64C],0.27
13,UAACAGGGGGCCUCAGCAGAAGCGUUCACGUCGCAGCCCCUGUCAGAUUCUGGUGAAUCUGCGUAUUCUGCUGUAUAUCUC [A13U A64U],0.47
14,UAACAGGGGGCCUCAGCAGAAGCGUUCACGUCGCAGCCCCUGUCAGAUUCUGGUGAAUCUGCGGAUUCUGCUGUAUAUCUC [A13U A64G],1.09
15,UAACAGGGGGCCUCAGCAGAAGCGUUCACGUCGCGGCCCCUGUCAGAUUCUGGUGAAUCUGCGAAUUCUGCUGUAUAUCUC [A13U A35G],1.3
16,UAACAGGGGGCCUCAGCAGAAGCGUUCACGUCGCUGCCCCUGUCAGAUUCUGGUGAAUCUGCGAAUUCUGCUGUAUAUCUC [A13U A35U],0.75
17,UAACAGGGGGCCUCAGCAGAAGCGUUCACGUCGCCGCCCCUGUCAGAUUCUGGUGAAUCUGCGAAUUCUGCUGUAUAUCUC [A13U A35C],0.69

row,Variant,self-cleavage
1,UAACAGGGGGCCUCAGCAGAAGCGUUCCCGUCGCAGCCCCUGUCAGAUUCUGGUGAAUCUGCGAAUUCUGCUGUAUAUCUC [A13U A28C],0.64
2,UAACAGGGGGCCUCAGCAGAAGCGUUCGCGUCGCAGCCCCUGUCAGAUUCUGGUGAAUCUGCGAAUUCUGCUGUAUAUCUC [A13U A28G],0.72
3,UAACAGGGGGCCUCAGCAGAAGCGUUCUCGUCGCAGCCCCUGUCAGAUUCUGGUGAAUCUGCGAAUUCUGCUGUAUAUCUC [A13U A28U],1.01
4,UAACAGGGGGCCUCAGCAGAAGCGUUCACGUCGCAGCCCCUGUCAGAUUCUGGUGAAUCUGCGAGUUCUGCUGUAUAUCUC [A13U A65G],0.61
5,UAACAGGGGGCCUCAGCAGAAGCGUUCACGUCGCAGCCCCUGUCAGAUUCUGGUGAAUCUGCGACUUCUGCUGUAUAUCUC [A13U A65C],0.17
6,UAACAGGGGGCCGCAGCAGAAGCGUUCACGUCGCAGCCCCUGUCAGAUUCUGGUGAAUCUGCGAAUUCUGCUGUACAUCUC [A13G U76C],0.94
7,UAACAGGGGGCCGCAGCAGAAGCGUUCACGUCGCAGCCCCUGUCAGAUUCUGGUGAAUCUGCGAAUUCUGCUGUAGAUCUC [A13G U76G],1.08
8,UAACAGGGGGCCGCAGCAGAAGCGUUCACGUCGCAGCCCCUGUCAGAUUCUGGUGAAUCUGCGAAUUCUGCUGUAAAUCUC [A13G U76A],0.99
9,UAACAGGGGGCCUCAGCAGAAGCGUUCAUGUCGCAGCCCCUGUCAGAUUCUGGUGAAUCUGCGAAUUCUGCUGUAUAUCUC [A13U C29U],0.58
10,UAACAGGGGGCCUCAGCAGAAGCGUUCACGUCGCAGCCCCUGUCAGAUUCUGGUGAAUCUGCGAAUUCUGCUGUAUUUCUC [A13U A77U],1.22
11,UAACAGGGGGCCUCAGCAGAAGCGUUCACGUCGCAGCCCCUGUCAGAUUCUGGUGAAUCUGCGAAUUCUGCUGUAUGUCUC [A13U A77G],1.03
12,UAACAGGGGGCCGCAGCAGAAGCGUUCACGUCGCAGCCCCUGUCAGAUUCUGGUGAAUCUGCGAAUUCUGCUGCAUAUCUC [A13G U74C],0.72
13,UAACAGGGGGCCGCAGCAGAAGCGUUCACGUCGCAGCCCCUGUCAGAUUCUGGUGAAUCUGCGAAUUCUGCUGAAUAUCUC [A13G U74A],1.28
14,UAACAGGGGGCCGCAGCAGAAGCGUUCACGUCGCAGCCCCUGUCAGAUUCUGGUGAAUCUGCGAAUUCUGCUGGAUAUCUC [A13G U74G],1.37
15,UAACAGGGGGCCUCUGCAGAAGCGUUCACGUCGCAGCCCCUGUCAGAUUCUGGUGAAUCUGCGAAUUCUGCUGUAUAUCUC [A13U A15U],1.05
16,UAACAGGGGGCCUCGGCAGAAGCGUUCACGUCGCAGCCCCUGUCAGAUUCUGGUGAAUCUGCGAAUUCUGCUGUAUAUCUC [A13U A15G],0.69
17,UAACAGGGGGCCUCCGCAGAAGCGUUCACGUCGCAGCCCCUGUCAGAUUCUGGUGAAUCUGCGAAUUCUGCUGUAUAUCUC [A13U A15C],0.88

# — the RNAGym collection of RNA variant scans (doi:10.1093/nar/gkz1192)
